Patent publication US20190010193A1 (REALTA, published 2019)
Ends that are not written are not given here.

T1: calreticulin (UniProt P27797 18-417, limits assumed)
T1 construct: also called CRT; recombinant calreticulin
T1 sequence (looked up): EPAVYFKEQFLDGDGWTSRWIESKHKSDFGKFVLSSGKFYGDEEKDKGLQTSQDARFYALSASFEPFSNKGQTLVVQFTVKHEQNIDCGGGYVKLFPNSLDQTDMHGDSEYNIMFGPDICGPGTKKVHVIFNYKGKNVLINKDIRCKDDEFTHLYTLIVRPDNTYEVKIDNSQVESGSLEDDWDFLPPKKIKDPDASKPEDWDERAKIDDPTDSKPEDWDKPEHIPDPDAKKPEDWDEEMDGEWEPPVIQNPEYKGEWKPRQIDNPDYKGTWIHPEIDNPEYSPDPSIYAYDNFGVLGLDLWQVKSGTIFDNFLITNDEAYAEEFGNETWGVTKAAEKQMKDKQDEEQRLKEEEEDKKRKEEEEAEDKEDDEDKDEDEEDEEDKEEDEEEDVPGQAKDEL


How the values were obtained:
C1q (human) = C1q (human) (UniProt P02745); test: cell-based or functional assay
calreticulin = target: T1, calreticulin; test: plates coated with C1q, calreticulin and BSA, PA peptide added (FIG. 14A)
BSA = target: T2, BSA (UniProt P02769 25-607); test: as above
T2 construct: Negative control
T2 sequence (P02769 25-607 limits assumed): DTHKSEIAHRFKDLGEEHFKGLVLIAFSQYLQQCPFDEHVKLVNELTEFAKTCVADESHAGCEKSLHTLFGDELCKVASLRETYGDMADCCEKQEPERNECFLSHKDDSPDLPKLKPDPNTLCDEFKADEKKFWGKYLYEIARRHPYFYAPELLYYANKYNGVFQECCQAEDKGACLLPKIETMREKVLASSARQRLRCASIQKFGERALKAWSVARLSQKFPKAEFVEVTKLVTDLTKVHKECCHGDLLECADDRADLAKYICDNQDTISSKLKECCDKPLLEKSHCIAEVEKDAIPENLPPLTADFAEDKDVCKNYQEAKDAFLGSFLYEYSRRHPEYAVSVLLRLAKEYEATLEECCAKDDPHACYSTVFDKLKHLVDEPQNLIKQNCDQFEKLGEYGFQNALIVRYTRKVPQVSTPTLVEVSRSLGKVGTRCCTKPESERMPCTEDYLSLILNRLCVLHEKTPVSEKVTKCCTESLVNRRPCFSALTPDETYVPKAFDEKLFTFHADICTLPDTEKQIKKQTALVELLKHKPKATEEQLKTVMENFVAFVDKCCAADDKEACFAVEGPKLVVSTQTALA

Sequence of C1q (human) (P02745 23-245, chain 1 of 3): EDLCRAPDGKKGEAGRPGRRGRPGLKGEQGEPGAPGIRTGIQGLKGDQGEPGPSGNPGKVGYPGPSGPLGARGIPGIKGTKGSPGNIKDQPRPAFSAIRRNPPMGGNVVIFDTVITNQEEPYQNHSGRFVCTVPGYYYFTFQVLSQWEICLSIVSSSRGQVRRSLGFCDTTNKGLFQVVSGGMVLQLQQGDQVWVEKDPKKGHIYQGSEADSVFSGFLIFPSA
Sequence of C1q (human) (P02746 28-253, chain 2 of 3, further chain): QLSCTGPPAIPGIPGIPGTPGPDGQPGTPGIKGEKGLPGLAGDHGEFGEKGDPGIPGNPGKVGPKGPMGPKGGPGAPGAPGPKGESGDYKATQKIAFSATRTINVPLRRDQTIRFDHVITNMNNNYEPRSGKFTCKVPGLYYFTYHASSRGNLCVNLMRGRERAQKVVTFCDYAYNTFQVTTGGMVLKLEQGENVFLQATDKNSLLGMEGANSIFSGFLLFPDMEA
Sequence of C1q (human) (P02747 29-245, chain 3 of 3, further chain): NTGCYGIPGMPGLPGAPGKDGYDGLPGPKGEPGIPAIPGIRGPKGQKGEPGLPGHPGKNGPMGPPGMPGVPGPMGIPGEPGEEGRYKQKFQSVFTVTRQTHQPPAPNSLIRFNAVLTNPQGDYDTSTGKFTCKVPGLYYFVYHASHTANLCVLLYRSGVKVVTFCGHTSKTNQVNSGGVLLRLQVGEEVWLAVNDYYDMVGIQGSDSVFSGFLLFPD

Binder	Hemolysis (%), sensitized sheep RBCs, factor B-depleted human serum, peptide 0.77 mM (C1q (human))	other results
IALILEPICCQERAA-dPEG08 (cysteine pairing not given here) [PA-dPEG08]	34.7%	–
IALILEPICCQERAA-dPEG12 (cysteine pairing not given here) [PA-dPEG12]	11.4%	–
IALILEPICCQERAA-dPEG02 (cysteine pairing not given here) [PA-dPEG02]	11.6%	–
IALILEPICCQERAA-dPEG20 (cysteine pairing not given here) [PA-dPEG20]	11.4%	–
IALILEPICCQERAA-dPEG03 (cysteine pairing not given here) [PA-dPEG03]	12.6%	–
IALILEPICCQERAA-dPEG04 (cysteine pairing not given here) [PA-dPEG04]	12.4%	–
IALILEPICCQERAA (also called PA; PIC1) [Polar Assortant peptide]	–	binding result (calreticulin): no binding; binding result (BSA): no binding
IALILEPICCQERAA-dPEG16 (cysteine pairing not given here) [PA-dPEG16]	12%	–
IALILEPICCQERAA-dPEG24 (cysteine pairing not given here) [PA-dPEG24]	2.99%	Hemolysis in presence of PA-dPEG24 (Abs 412 nm), plasma of Donor O+ #1 with B+ erythrocytes (0.747 without peptide) (C1q (human)): 0.008 Abs 412 nm; inhibition of hemolysis of B erythrocytes by type-O plasma, dose-response (FIG. 8) (C1q (human)): > 95%
IALILEPICCQERAA-dPEG06 (cysteine pairing not given here) [PA-dPEG06]	44.8%	–
